Test results published in patent US20220041736A1 (Amgen, published 2022).
Residue numbers refer to the chain shown, from its start. In names and notes the source's numbering stands.

T1: human 1-27 CD3ε-EpCAM (1-27 N-terminal amino acids of human CD3 epsilon, Flag tag, cynomolgus EpCAM) (human CD3 epsilon 1-27 / cynomolgus …)
T1 construct: also called 1-27 CD3-EpCAM comprising the human 27 mer
T1 chain: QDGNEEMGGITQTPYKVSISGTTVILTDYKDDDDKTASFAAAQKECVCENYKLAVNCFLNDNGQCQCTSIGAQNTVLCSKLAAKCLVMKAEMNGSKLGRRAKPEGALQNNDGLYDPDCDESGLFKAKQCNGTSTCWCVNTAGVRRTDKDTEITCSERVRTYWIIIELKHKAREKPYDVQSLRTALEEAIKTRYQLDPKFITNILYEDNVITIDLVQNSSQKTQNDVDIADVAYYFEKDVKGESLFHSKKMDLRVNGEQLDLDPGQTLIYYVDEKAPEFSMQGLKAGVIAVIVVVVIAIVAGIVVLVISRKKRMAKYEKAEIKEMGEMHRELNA

T2: marmoset 1-27 CD3ε-EpCAM (Callithrix jacchus CD3 epsilon 1-27 / …)
T2 construct: Transmembrane fusion on 293-HEK or CHO cells; also called 1-27 CD3-EpCAM comprising the marmoset 27 mer
T2 chain: T1 chain with G9D, I10T, T13N, I25T

T3: tamarin 1-27 CD3ε-EpCAM (Saguinus oedipus CD3 epsilon 1-27 / …)
T3 construct: Transmembrane fusion on 293-HEK or CHO cells; also called 1-27 CD3-EpCAM comprising the tamarin 27 mer
T3 chain: T1 chain with G9D, I10T, T13N, I25T

T4: squirrel monkey 1-27 CD3ε-EpCAM (Saimiri sciureus CD3 epsilon 1-27 / …)
T4 construct: Transmembrane fusion on 293-HEK or CHO cells; also called 1-27 CD3-EpCAM comprising the squirrel monkey 27 mer
T4 chain: T1 chain with M7I, G9D, I10T, T13N, I25T

T5: swine 1-27 CD3ε-EpCAM (Sus scrofa CD3 epsilon 1-27 / …)
T5 construct: Negative control construct on 293-HEK or CHO cells; also called 1-27 CD3-EpCAM comprising the swine 27 mer
T5 chain: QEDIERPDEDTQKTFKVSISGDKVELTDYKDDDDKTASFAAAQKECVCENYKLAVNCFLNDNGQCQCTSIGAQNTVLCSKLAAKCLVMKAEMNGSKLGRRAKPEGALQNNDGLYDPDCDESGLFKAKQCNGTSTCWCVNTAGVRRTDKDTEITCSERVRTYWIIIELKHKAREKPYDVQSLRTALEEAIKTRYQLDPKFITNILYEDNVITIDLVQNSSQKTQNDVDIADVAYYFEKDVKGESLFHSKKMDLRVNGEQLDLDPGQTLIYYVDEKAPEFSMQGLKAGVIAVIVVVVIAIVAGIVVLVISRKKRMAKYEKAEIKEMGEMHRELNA

T6: human 1-27 CD3 BSA conjugate (peptide of the N-terminal amino acids 1-27 of human CD3 epsilon plus C-terminal … (human, printed as acetyl-QDGNEEMGGITQTPYKVSISGTTVILTC; C-terminal Cys 28 coupled to maleimide activated BSA)
T6 construct: also called peptide-BSA conjugate
T6 peptide: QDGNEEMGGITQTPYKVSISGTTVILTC

B1: A2J HLP single-chain antibody (scFv)
scFv: EVQLLESGGGLVQPGGSLKLSCAASGFTFNVYAMNWVRQAPGKGLEWVARIRSKYNNYATYYADSVKKRFTISRDDSKNTAYLQMNNLKTEDTAVYYCVRHGNFGNSYLSWWAYWGQGTLVTVSSGGGGSGGGGSGGGGSELVVTQEPSLTVSPGGTVTLTCRSSTGAVTSGYYPNWVQQKPGQAPRGLIGATDMRPSGTPARFSGSLLGGKAALTLSGVQPEDEAEYYCALWYSNRWVFGGGTKLTVLTGDYKDDDDKHHHHHH
notes: Crude periplasmic preparation from pComb3H5BFlag/His; also called VH-VL-P of A2J
B2: E2M HLP single-chain antibody (scFv)
scFv: B1 scFv with V31G, K68E, G102R, W112F
notes: Crude periplasmic preparation; also called VH-VL-P of E2M
B3: anti-CD3 single domain antibody CD3 3D-H11 (VHH)
VHH: EVQLVESGGGLVQPGGSLRLSCAASGFTFDDYGMSWVRQAPGKWLEWVSDISWNGGSTYYADSVKGRFTISRDNAENTLYLQMNSLKPDDTAVYYCAKMGEGGWGANDYWGQGTQVTVSS
notes: Crude periplasmic preparation from pComb3H5BFlag/His; also called V CD3 3D-H11

What was measured:
[1] = biological target: T7, 1-27 CD3-Fc (N-terminal amino acids 1-27 of the mature human CD3 epsilon chain fused to the hinge and Fc … (human)); test: ELISA, captured 1-27 CD3-Fc, crude periplasmic scFv
T7 construct: Entry 229 is printed without the leader peptide; also called 27 aa huCD3ε; 1-27 CD3ε-Fc

[2] = biological target: T1, human 1-27 CD3ε-EpCAM (1-27 N-terminal …); test: FACS, transfected 293-HEK cells
[3] = biological target: T2, marmoset 1-27 CD3ε-EpCAM; test: FACS, transfected 293-HEK cells
[4] = biological target: T3, tamarin 1-27 CD3ε-EpCAM; test: FACS, transfected 293-HEK cells
[5] = biological target: T4, squirrel monkey 1-27 CD3ε-EpCAM; test: FACS, transfected 293-HEK cells
[6] = biological target: T5, swine 1-27 CD3ε-EpCAM; test: FACS, transfected 293-HEK cells, crude periplasmic scFv
[7] = biological target: T6, human 1-27 CD3 BSA conjugate (peptide …); test: ELISA, immobilized antigen, crude periplasmic preparation
[8] = biological target: T7, 1-27 CD3-Fc (N-terminal amino acids …); test: as above
[9] = biological target: T8, BSA (bovine serum albumin, blocking agent) (bovine, UniProt P02769 25-607); test: ELISA, blocked wells without antigen, crude periplasmic preparation
T8 construct: also called bovine Albumin, fraction V
T8 sequence (P02769 25-607 limits assumed): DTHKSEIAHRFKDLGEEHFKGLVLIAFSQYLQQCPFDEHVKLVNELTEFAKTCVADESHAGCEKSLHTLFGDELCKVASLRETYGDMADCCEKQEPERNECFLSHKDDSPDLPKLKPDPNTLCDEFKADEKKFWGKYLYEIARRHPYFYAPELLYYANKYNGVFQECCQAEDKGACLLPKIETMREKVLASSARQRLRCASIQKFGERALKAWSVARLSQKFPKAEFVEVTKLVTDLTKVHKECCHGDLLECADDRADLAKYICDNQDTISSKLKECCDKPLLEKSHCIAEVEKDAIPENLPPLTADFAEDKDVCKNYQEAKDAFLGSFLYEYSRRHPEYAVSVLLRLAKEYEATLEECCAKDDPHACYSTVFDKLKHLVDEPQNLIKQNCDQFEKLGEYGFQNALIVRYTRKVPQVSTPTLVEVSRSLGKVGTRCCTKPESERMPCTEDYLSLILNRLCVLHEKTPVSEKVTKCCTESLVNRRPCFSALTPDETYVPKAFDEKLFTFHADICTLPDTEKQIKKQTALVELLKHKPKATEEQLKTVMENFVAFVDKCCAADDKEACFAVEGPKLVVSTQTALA

Binder | binding result [1] | binding result [2] | binding result [3] | binding result [4] | binding result [5] | binding result [6] | binding result [7] | binding result [8] | binding result [9]
B1 | binds |  |  |  |  |  |  |  | 
B2 | binds | binds | binds | binds | binds | no binding |  |  | 
B3 |  |  |  |  |  |  | binds | binds | no binding
